Earlier results as cited in patent US20060188964A1, “Processing for producing and crystallizing G-protein coupled receptors” (priority 2004, published 2006).

Test system: insulin action in the liver
Details: mice; insulin clamp; recombinant protein from HEK-293T cells

B1: resistin: mouse resistin, a highly disulfide-linked hormone naturally secreted from adipocytes; recombinant, hexameric (protein, UniProt Q99P87 21-114, looked up)
Resistin: SSMPLCPIDEAIDKKIKQDFNSLFPNAIKNIGLNCWTVSSRGKLASCPEGTAVLSCSCGSACGSWDIREEKVCHCQCARIDWTAARCCKLQVAS
effect on insulin action: potent antagonist of insulin action in the liver
